In US20210292393A1:
Where a chain is given by its changes, count along the chain named. Values joined by “and” are separate entries in the source; they are usually repeats but may differ in a detail not shown here. Equal values may be shown once.

Columns and labels:
Conditions in all cases: remark: other sources report otherwise
[1] = biological target: SARS-CoV-2 full length spike protein, V483A mutant, expressed on the surface of CHO cells (SARS-CoV-2), P0DTC2
[2] = biological target: SARS-CoV-2 full length spike protein, D614G mutant, expressed on CHO cells (SARS-CoV-2), P0DTC2
[3] = biological target: SARS-CoV-2 full length spike protein, V367F mutant, expressed on CHO cells (SARS-CoV-2), P0DTC2
[4] = biological target: SARS-CoV-2 full length spike protein, V483A mutant, expressed on CHO cells (SARS-CoV-2), P0DTC2
[5] = biological target: SARS-CoV-2 full length spike protein, V367F mutant (SARS-CoV-2), P0DTC2
[6] = biological target: SARS-CoV-2 full length spike protein, V483A mutant (SARS-CoV-2), P0DTC2
[7] = biological target: SARS-CoV-2 full length spike protein, D614G mutant (SARS-CoV-2), P0DTC2

B1: antibody 322 (antibody, V domains shown)
VH: EVQLVESGGGLVQPGGSLRLSCAASGFTFSSYWMSWVRQAPGKGLEWVANIKQDGSEKYYVDSVKGRFTISRDNAKNSLYLQMNSLRAEDTAVYYCARDEDVAAALDYWGQGTLVTVSS
VL: SYVLTQPPSVSVAPGKTARITCGGNNIGSKSVHWYQQKPGQAPVLVIYYDSDRPSGIPERFSGSNSGNTATLTISRVEAGDEADYYCQVWDSSSDHPERVFGGGTKLTVL
median fluorescence intensity, fold over isotype control (fold over isotype) [1]: 4.95

B2: antibody 325 (antibody, V domains shown)
VH: QVQLQESGPGLVKPSQTLSLTCTVSGGSISGGGYYWSWIRQHPGKGLEWIGYIYYSGSTYYNPSLQSRVTISVDTSKNQFSLKLSSVTAADTAVYYCARVGTSSVWYFDYWGQGTLVTVSS
VL: QSALTQPRSVSGSPGQSVTISCTGTSSDVGGYNYVSWYQQHPGKAPKLMIYDVTKRPSGVPDRFSGSKSGNTASLTISGLQAEDEADYYCSSYAGSWVFGGGTKLTVL
median fluorescence intensity, fold over isotype control (fold over isotype) [1]: 1.17

B3: antibody 362 (antibody, V domains shown)
VH: QVQLVESGGGVVQPGRSLRLSCAASGFNLSNYAMHWVRQASGKGLEWVSLISYDGSVKYYTDSVKGRFTVSGDNSKNTLFLQMNSLRPDDSALYYCVRGGVSGPNSFDMWGQGTTVTVSS
VL: DVVMTQSPLSLPVTLGQPATISCRSSQSLVYSDGNTYVNWFQQRPGQSPRRLIYQVSIRASGVPDRFSGSGSGTDFALKISRVEAEDVGVYYCMQGTHWPVTFGQGTKVEIK
median fluorescence intensity, fold over isotype control (fold over isotype) [1]: 10.3

B4: antibody 495 (antibody, V domains shown)
VH: QITLKESGPTLVKPTQTLTLTCTFSGFSLSTSGVGVGWIRQPPGKALEWLALIYWDDDKRYSPSLKSRLTITKDTSKNQVVLIMTNMDPVDTATYYCAHRDSSSWFDLDAFDIWGQGTMVIVSS
VL: QSVLTQPPSVSEAPRQRVTISCSGSSSNIGNNAVNWYQQLPGKAPKLLIYYDDLLPSGVSDRFSGSKSGTSASLAISGLQSEDEADYYCAAWDDRLNGPVFGGGTKLTVL
median fluorescence intensity, fold over isotype control (fold over isotype) [2]: 1.43
median fluorescence intensity, fold over isotype control (fold over isotype) [3]: 3.82
median fluorescence intensity, fold over isotype control (fold over isotype) [4]: 3.47 and 1.65

B5: antibody 315 (antibody, V domains shown)
VH: QVQLVQSGSELKKPGASVKLSCQASGYSFTNHAMNWVRQAPGQGLEWMGWINTNTGNPTYAQGFTGRFVFSLDTSVSTTYLHISSLKAEDTAVYYCARASARPGVATNLDFWGQGTLVVVSS
VL: DIQMTQSPSSLSASVGDRVTITCRASQNIDNYLNWYQQKPGKAPKLLIYAASRLHSGVPSRFSGSGSGTDFTLIISSLQPEDLATYYCQQSYSNPLTFGPGTKVDIR
median fluorescence intensity, fold over isotype control (fold over isotype) [1]: 8.39

B6: antibody 499 (antibody, V domains shown)
VH: EVQLVESGGGLVKPGGSLRLSCAASGFTFSSYSMNWVRQAPGKGLEWVSSISSSSSYIYYADSVKGRFTISRDNAKNSLYLQMNSLRAEDTAVYYCARAPAGIVVGPDYWGQGTLVTVSS
VL: NFMLTQPHSVSESPGKTVTISCTGSSGSIASNYVQWYQQRPGSAPTTVIFEDNQRPSGVPDRFSGSIDSSSNSASLTISGLKTEDEADYYCQSYHSSNPHVVFGGGTKLTVL
median fluorescence intensity, fold over isotype control (fold over isotype) [2]: 4.3
median fluorescence intensity, fold over isotype control (fold over isotype) [3]: 1.18
median fluorescence intensity, fold over isotype control (fold over isotype) [4]: 4.39 and 2.6

B7: antibody 269 (antibody, V domains shown)
VH: QLQLQESGPGLVKPSETLSLTCTVSGGSISSSSYYWGWIRQPPGKGLEWIGNIYYSGSTYYNPSLKSRVTISVDTSKNQFSLKLSSVTAADTAVYYCAGEELDIVATIYSSRYYYYGMDVWGQGTTVTVSS
VL: QSALTQPASVSGSPGQSITISCTGTSSDVGGYNYVSWYQQHPGKAPKLMIYEVSNRPSGVSNRFSGSKSGNTASLTISGLQAEDEADYYCSSYTSTSTLVFGGGTKLTVL
median fluorescence intensity, fold over isotype control (fold over isotype) [5]: 25.4
median fluorescence intensity, fold over isotype control (fold over isotype) [6]: 22.8 and 11.6

B8: antibody 279 (antibody, V domains shown)
VH: EVQLLESGGGLVQPGGSLRLSCAASGFTFSSYAMSWVRQAPGKGLEWVSTISGSGGNTYYADSVKGRFTISRDNSKNTLYLQMNSLRAEDTAVYYCAKDLFQGLYYGSGEFDYWGQGTLVTVSS
VL: B7 VL with G31A, E52G, T96S, L99R, G103T, L107V
median fluorescence intensity, fold over isotype control (fold over isotype) [5]: 13.4
median fluorescence intensity, fold over isotype control (fold over isotype) [6]: 11.8 and 8.2

B9: antibody 521 (antibody, V domains shown)
VH: QVQLVESGGGVVQPGRSLRLSCAASGFTFSSYGMHWVRQAPGKGLEWVAVIWYDGSNKYYADSVKGRFTISRDNSKNTLYLQMNSLRAEDTAVYYCAREGNDYGDYGEWELLGYFDYWGQGTLVTVSS
VL: SYELTQPPSVSVSPGQTARITCSGDALPKKYAYWYQQKSGQAPVLVIYEDSKRPSGIPERFSGSSSGTMATLTISGAQVEDEADYYCYSTDSSGNHRRVFGGGTKLTVL
median fold over isotype (fold over isotype) [7]: 2.68
median fold over isotype (fold over isotype) [5]: 1.68
median fold over isotype (fold over isotype) [6]: 2.72 and 5.78
